{
  "source": "the RNAGym collection of RNA variant scans (doi:10.1073/pnas.2313332121)",
  "parents": {"B1": {"name": "TPR t1 (parent)", "chain": "GACCAAUCUGCCCUCAGAGCUCGAGAACAUCUUCGGAUGCAGAGGAGGCAGGCUUCGGUGGCGCGAUAGCGCCAACGUCCUCAACCUCCAAUGCAUCCCACCACAUGAUGAUGCCUGAAGAGCCUUGGUUUUUUG"}},
  "data": [
    {"variants_of": "B1", "test": "polymerase ribozyme fitness, log enrichment relative to wild type (log ratio); higher = more active; in vitro selection for triplet polymerase activity", "outline": "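Streptavidin-bead capture of gel-excised extended constructs, followed by RT-PCR, closed a single triplicate in vitro selection round. That round began by annealing PCR-built, transcribed mutant libraries of each subunit of a heterodimeric triplet polymerase ribozyme with a biotinylated primer, the partner subunit and triplets, then incubating them frozen at −7 °C. After Illumina sequencing of inputs and outputs, genotypes needed ≥10 input reads and ≥1 read per output. Fitness is the base-2 logarithm of genotype enrichment over wild-type enrichment, using inverse-variance-weighted replicate averages.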", "values": [
      {"variant": "GACCAAUCUGCCCUCAGAGCUCGGGAACAUCUUCGGAUGCAGAGGAGGCAGGCUUCGGUGGCGCGAUAGCGGCAACGUCCUCAACCUCCAAUGAAUCCCACCACAUGAUGAUGCCUGAAGAGCCUUGGUUUUUUG", "note": "[A24G C72G C94A]", "polymerase ribozyme fitness (log ratio)": -2.87},
      {"variant": "GACCAAUCUGCCCUCAGAGCUCGGGAACAUCUUCGGAUGCAGAGGAGGCAGGCUUCGGUGGCGCGAUAGCGCCAACGUCCUGAACCUCCAAUGCAUCCCACCACAUGAUGAUGCCUGAAGAGCCUUGGUUUUUUG", "note": "[A24G C82G]", "polymerase ribozyme fitness (log ratio)": -1.98},
      {"variant": "GACCAAUCUGCCCUCAGAGCUCGGGAACAUCUUCGGAUGCAGAGGAGGCAGGCUUCGGUGGCGCGAUAGCGCCAACGUCCUCAACCUCCAAUGAAUCCCACCACAUGAUGAUGCCUGAAGAGCCUUGGUUUUUUG", "note": "[A24G C94A]", "polymerase ribozyme fitness (log ratio)": -2.52},
      {"variant": "GACCAAUCUGCCCUCAGAGCUCGGGAACAUCUUCGGAUGCAGAGGAGGCAGGCUUCGGUGGCGCGAUAGCGCCAACGUCCUCAACCUCCAAUGCAUCCCACCACAUGAUGAUGGCUGAAGAGCCUUGGUUUUUUG", "note": "[A24G C114G]", "polymerase ribozyme fitness (log ratio)": -3.83},
      {"variant": "GACCAAUCUGCCCUCAGAGCUCGGGAACAUCUUCGGAUGCAGAGGAGGCAGGCUUCGGUGGCGCGAUAGCGCCAACGUCCUCAACCUCCAAUGCAUCCCACCACAUGAUGAUGCCUGAAGAGCAUUGGUUUUUUG", "note": "[A24G C124A]", "polymerase ribozyme fitness (log ratio)": 0.386},
      {"variant": "GACCAAUCUGCCCUCAGAGCUCGGGAACAUCUUCGCAUGCAGAGGAGGAAGGCUUCGGUGGCUCGAUAGCGCCAACGUCCUCAACCUCCAAUGCAUCCCACCACAUGAUGAUGCCUGAAGAGCCUUGGUUUUUUG", "note": "[A24G G36C C49A G63U]", "polymerase ribozyme fitness (log ratio)": -4.77},
      {"variant": "GACCAAUCUGCCCUCAGAGCUCGGGAACAUCUUCGGAUGCAUAGGAGGCAGGCUUCGGUUGCGCGAUAGCGCCAACGUCCUCAACCUGCAAUGCAUCCCACCACAUGAUGAUGCCUGAAGGGCCUUGGUUUUUUG", "note": "[A24G G42U G60U C88G A121G]", "polymerase ribozyme fitness (log ratio)": -1.74},
      {"variant": "GACCAAUCUGCCCUCAGAGCUCGGGAACAUCUUCGGAUGCAGAUGAGGCAGGCUUCGGUGACGCGAUAGCGCCUACGUCCUCAACCUCCAAUGCAUCCCACCACAUGAUGAUGCCUGAAGAGCCUUGGUUUUGUG", "note": "[A24G G44U G61A A74U U133G]", "polymerase ribozyme fitness (log ratio)": -3.56},
      {"variant": "GACCAAUCUGCCCUCAGAGCUCGGGAACAUCUUCGGAUGCAGAGGAAGCAGGCUUCGGUGGCGCGAUAGCGCAAACGUCCUCAACCUCCAAUGCAUCCCACCACAUGAUGAUGCCUGAAGAGCCUUGGUUUUUUG", "note": "[A24G G47A C73A]", "polymerase ribozyme fitness (log ratio)": -1.58},
      {"variant": "GACCAAUCUGCCCUCAGAGCUCGGGAACAUCUUCGGAUGCAGAGGAGACAGGCUUCGGUGGCGCGAUAGCGCCAACGUCCUCGACCUCCAAUGCAUCCCACCACAUGAUGAUGCCUGAAGAGCCUUGGUUUUUUG", "note": "[A24G G48A A83G]", "polymerase ribozyme fitness (log ratio)": -2.89},
      {"variant": "GACCAAUCUGCCCUCAGAGCUCGGGAACAUCUUCGGAUGCAGAGGAGACAGGCUUCGGUGGCGUGAUAGCGCCAACGUCCUCAACCUCCAAUGCAUCCCACCACAUGAUGAUGCCUGAAGAGCCUUGGUUUUUUG", "note": "[A24G G48A C64U]", "polymerase ribozyme fitness (log ratio)": -2.39},
      {"variant": "GACCAAUCUGCCCUCAGAGCUCGGGAACAUCUUCGGAUGCAGAGGAGGCAAGCUUCGGUGGCGCGAUAGCGCCAACGCCCUCAACCUCCAAUGCAUCCCACCACAUGAUGAUGCCUGAAGAGCCUUGGUUUUUUG", "note": "[A24G G51A U78C]", "polymerase ribozyme fitness (log ratio)": -6.04},
      {"variant": "GACCAAUCUGCCCUCAGAGCUCGGGAACAUCUUCGGAUGCAGAGGAGGCAGGCUUCGCUGGCGCGAUAGCGCCAACGUCCUCAACCUCCAAUGCAUCCCACCACAUGAUGAUGCCUGUAGAGCCUUGGUUUUUUG", "note": "[A24G G58C A118U]", "polymerase ribozyme fitness (log ratio)": -2.06},
      {"variant": "GACCAAUCUGCCCUCAGAGCUCGGGAACAUCUUCGGAUGCAGAGGAGGCAGGCUUCGGUCGCGCGAUAGCGCCAACGUACUCAACCUCCAAUGCAUCCCACCACAUGAUGAUGCCUGAAGAACCUUGGUUUUUUG", "note": "[A24G G60C C79A G122A]", "polymerase ribozyme fitness (log ratio)": -5.59},
      {"variant": "GACCAAUCUGCCCUCAGAGCUCGGGAACAUCUUCGGAUGCAGAGGAGGCAGGCUUCGGUGGCUCGAUAGCGCCAACGUCCUCAACCUCCAAUGCAUCCCACCACAUGAUGAUUCCUGAAGAGCCUUGGUUUUUUG", "note": "[A24G G63U G113U]", "polymerase ribozyme fitness (log ratio)": -6.59},
      {"variant": "GACCAAUCUGCCCUCAGAGCUCGGGAACAUCUUCGGAUGCAGAGGAGGCAGGCUUCGGUGGCGCGAUAGCCCCAACGUCCUCAACCUCCAAUGCAUCCCACCACAUGAUGAUGCCUGAAGAGCCUUGGUUUUUUG", "note": "[A24G G71C]", "polymerase ribozyme fitness (log ratio)": -2.48},
      {"variant": "GACCAAUCUGCCCUCAGAGCUCGGGAACAUCUUCGGAUGCAGAGGAGGCAGGCUUCGGUGGCGCGAUAGCCCCAACGUCCUCAACCUCCAAUGCAUCCCACCACAUGAUGAUGCCUGAAUAGCCUUGGUUUUUUG", "note": "[A24G G71C G120U]", "polymerase ribozyme fitness (log ratio)": -2.78},
      {"variant": "GACCAAUCUGCCCUCAGAGCUCGGGAACAUCUUCGGAUGCAGAGGAGGCAGGCUUCGGUGGCGCGAUAGCGCCAACGUCCUCAACCUCCAAUGCAUCCCACCACAUGAUGAUGCCUGAAGAGCCUUGAUUUUUUG", "note": "[A24G G128A]", "polymerase ribozyme fitness (log ratio)": -3.49},
      {"variant": "GACCAAUCUGCCCUCAGAGCUCGGGAACAUCUUCGGAUGCAGAGGAGGCAGGCUUCGGUGGCGCGAUAGCGCCAACGUCCUCAACCUCCAAUGCAUCCCACCACAUGAUGAUGCCUGAAGAGCCUUGUUUUUUUG", "note": "[A24G G128U]", "polymerase ribozyme fitness (log ratio)": -4.32},
      {"variant": "GACCAAUCUGCCCUCAGAGCUCGGGAACAUCUUCGGAUGCAGAGGAGGCAGGCGUCCGUGGCGCGAUAGCGCCAACGUCCUCAACCUCCAAUGCAUCCCACCACAUGAUGAUGCCUGAAGAGCUUUGGUUUUUUG", "note": "[A24G U54G G57C C124U]", "polymerase ribozyme fitness (log ratio)": -2.01},
      {"variant": "GACCAAUCUGCCCUCAGAGCUCGGGAACAUCUUCGGAUGCAGAGGAGGCAGGCUUCGGUGGCGCGAUAGCGCCAACGUCCUCAACCACCAAUGCAUCCCACCACAUGAUGAUGCCUGAAGAGCCUUGGUUUUUUG", "note": "[A24G U87A]", "polymerase ribozyme fitness (log ratio)": -1.94}
    ]}
  ]
}
